The test system of data set [1] is proNGF mutant SP174-101 (protease cleavage site mutated to VSAR).
For data set [2], the system named is human wild-type proNGF.
Sequence of human wild-type proNGF (chain, as listed by the source): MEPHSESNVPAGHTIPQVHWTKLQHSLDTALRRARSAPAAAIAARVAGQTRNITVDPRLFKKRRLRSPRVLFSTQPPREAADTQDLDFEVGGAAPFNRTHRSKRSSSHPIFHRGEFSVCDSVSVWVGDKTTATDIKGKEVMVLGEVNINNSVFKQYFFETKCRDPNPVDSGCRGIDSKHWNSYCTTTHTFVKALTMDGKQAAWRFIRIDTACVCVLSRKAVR

Sequence of proNGF mutant SP174-101 (protease cleavage site mutated to VSAR) (chain, as listed by the source mutant): as the sequence (chain, as listed by the source) above, with R101V, K103A counted along it

As to Trypsin (Roche, GMP grade), in data set [1], the % ProNGF remaining after tryptic digestion, Trypsin/ProNGF ratio 1/10000 (HPLC-UV) was 1.9%; the % betaNGF (cleavage yield) after tryptic digestion, Trypsin/ProNGF ratio 1/10000 (HPLC-UV) came to 84.5%; the “tryptic digestion, trypsin:proNGF 1:10,000 (w/w), 18 h, room temperature, SDS-PAGE” value was “A complete digestion of proNGF mutant to beta-NGF could be observed”. For the same substance, in data set [2], the % ProNGF remaining after tryptic digestion, Trypsin/ProNGF ratio 1/250 (HPLC-UV) stood at 0%; the % ProNGF remaining after tryptic digestion, Trypsin/ProNGF ratio 1/1000 (HPLC-UV) was 0%; the % ProNGF remaining after tryptic digestion, Trypsin/ProNGF ratio 1/5000 (HPLC-UV) is 21.5%; the % ProNGF remaining after tryptic digestion, Trypsin/ProNGF ratio 1/10000 (HPLC-UV) was 67.1%. Further, in data set [2], the % betaNGF (cleavage yield) after tryptic digestion, Trypsin/ProNGF ratio 1/250 (HPLC-UV) is 67.9%; the % betaNGF (cleavage yield) after tryptic digestion, Trypsin/ProNGF ratio 1/1000 (HPLC-UV) is 77.9%; the % betaNGF (cleavage yield) after tryptic digestion, Trypsin/ProNGF ratio 1/5000 (HPLC-UV) turned out to be 18.6%; the % betaNGF (cleavage yield) after tryptic digestion, Trypsin/ProNGF ratio 1/10000 (HPLC-UV) turned out to be 4.6%. Also, in data set [2], the % betaNGF Overdigested Forms after tryptic digestion, Trypsin/ProNGF ratio 1/250 (HPLC-UV) amounted to 25.7%; the % betaNGF Overdigested Forms after tryptic digestion, Trypsin/ProNGF ratio 1/1000 (HPLC-UV) came out at 12.9%; the % betaNGF Overdigested Forms after tryptic digestion, Trypsin/ProNGF ratio 1/5000 (HPLC-UV) was 6.6%.

These data come from patent US20200031893.
